Assay results from paper PMC3958483, “Fine Specificity and Molecular Competition in SLAM Family Receptor Signalling” (PLoS ONE, 2014).

B1: c-Src Tyrosine Kinase (CSK): SH2 domain containing protein pulled down by CD244 ITSM1 (protein)
chain: MSAIQAAWPSGTECIAKYNFHGTAEQDLPFCKGDVLTIVAVTKDPNWYKAKNKVGREGIIPANYVQKREGVKAGTKLSLMPWFHGKITREQAERLLYPPETGLFLVRESTNYPGDYTLCVSCDGKVEHYRIMYHASKLSIDEEVYFENLMQLVEHYTSDADGLCTRLIKPKVMEGTVAAQDEFYRSGWALNMKELKLLQTIGKGEFGDVMLGDYRGNKVAVKCIKNDATAQAFLAEASVMTQLRHSNLVQLLGVIVEEKGGLYIVTEYMAKGSLVDYLRSRGRSVLGGDCLLKFSLDVCEAMEYLEGNNFVHRDLAARNVLVSEDNVAKVSDFGLTKEASSTQDTGKLPVKWTAPEALREKKFSTKSDVWSFGILLWEIYSFGRVPYPRIPLKDVVPRVEKGYKMDAPDGCPPAVYEVMKNCWHLDAAMRPSFLQLREQLEHIKTHELHL
B2: SAP: small SH2 domain containing adapter protein (protein, UniProt O60880 1-128, looked up)
SH2 domain-containing protein …: MDAVAVYHGKISRETGEKLLLATGLDGSYLLRDSESVPGVYCLCVLYHGYIYTYRVSQTETGSWSAETAPGVHKRYFRKIKNLISAFQKPDQGIVIPLQYPVEKKSSARSTQGTTGIREDPDVCLKAP
B3: SHIP-1: SH2 domain containing phosphatase (protein)
chain: MVPCWNHGNITRSKAEELLSRTGKDGSFLVRASESISRAYALCVLYRNCVYTYRILPNEDDKFTVQASEGVSMRFFTKLDQLIEFYKKENMGLVTHLQYPVPLEEEDTGDDPEEDTVESVVSPPELPPRNIPLTASSCEAKEVPFSNENPRATETSRPSLSETLFQRLQSMDTSGLPEEHLKAIQDYLSTQLAQDSEFVKTGSSSLPHLKKLTTLLCKELYGEVIRTLPSLESLQRLFDQQLSPGLRPRPQVPGEANPINMVSKLSQLTSLLSSIEDKVKALLHEGPESPHRPSLIPPVTFEVKAESLGIPQKMQLKVDVESGKLIIKKSKDGSEDKFYSHKKILQLIKSQKFLNKLVILVETEKEKILRKEYVFADSKKREGFCQLLQQMKNKHSEQPEPDMITIFIGTWNMGNAPPPKKITSWFLSKGQGKTRDDSADYIPHDIYVIGTQEDPLSEKEWLEILKHSLQEITSVTFKTVAIHTLWNIRIVVLAKPEHENRISHICTDNVKTGIANTLGNKGAVGVSFMFNGTSLGFVNSHLTSGSEKKLRRNQNYMNILRFLALGDKKLSPFNITHRFTHLFWFGDLNYRVDLPTWEAETIIQKIKQQQYADLLSHDQLLTERREQKVFLHFEEEEITFAPTYRFERLTRDKYAYTKQKATGMKYNLPSWCDRVLWKSYPLVHVVCQSYGSTSDIMTSDHSPVFATFEAGVTSQFVSKNGPGTVDSQGQIEFLRCYATLKTKSQTKFYLEFHSSCLESFVKSQEGENEEGSEGELVVKFGETLPKLKPIISDPEYLLDQHILISIKSSDSDESYGEGCIALRLEATETQLPIYTPLTHHGELTGHFQGEIKLQTSQGKTREKLYDFVKTERDESSGPKTLKSLTSHDPMKQWEVTSRAPPCSGSSITEIINPNYMGVGPFGPPMPLHVKQTLSPDQQPTAWSYDQPPKDSPLGPCRGESPPTPPGQPPISPKKFLPSTANRGLPPRTQESRPSDLGKNAGDTLPQEDLPLTKPEMFENPLYGSLSSFPKPAPRKDQESPKMPRKEPPPCPEPGILSPSIVLTKAQEADRGEGPGKQVPAPRLRSFTCSSSAEGRAAGGDKSQGKPKTPVSSQAPVPAKRPIKPSRSEINQQTPPTPTPRPPLPVKSPAVLHLQHSKGRDYRDNTELPHHGKHRPEEGPPGPLGRTAMQ
B4: SHIP-2: SH2 domain containing phosphatase (protein)
chain: MASACGAPGPGGALGSQAPSWYHRDLSRAAAEELLARAGRDGSFLVRDSESVAGAFALCVLYQKHVHTYRILPDGEDFLAVQTSQGVPVRRFQTLGELIGLYAQPNQGLVCALLLPVEGEREPDPPDDRDASDGEDEKPPLPPRSGSTSISAPTGPSSPLPAPETPTAPAAESAPNGLSTVSHDYLKGSYGLDLEAVRGGASHLPHLTRTLATSCRRLHSEVDKVLSGLEILSKVFDQQSSPMVTRLLQQQNLPQTGEQELESLVLKLSVLKDFLSGIQKKALKALQDMSSTAPPAPQPSTRKAKTIPVQAFEVKLDVTLGDLTKIGKSQKFTLSVDVEGGRLVLLRRQRDSQEDWTTFTHDRIRQLIKSQRVQNKLGVVFEKEKDRTQRKDFIFVSARKREAFCQLLQLMKNKHSKQDEPDMISVFIGTWNMGSVPPPKNVTSWFTSKGLGKTLDEVTVTIPHDIYVFGTQENSVGDREWLDLLRGGLKELTDLDYRPIAMQSLWNIKVAVLVKPEHENRISHVSTSSVKTGIANTLGNKGAVGVSFMFNGTSFGFVNCHLTSGNEKTARRNQNYLDILRLLSLGDRQLNAFDISLRFTHLFWFGDLNYRLDMDIQEILNYISRKEFEPLLRVDQLNLEREKHKVFLRFSEEEISFPPTYRYERGSRDTYAWHKQKPTGVRTNVPSWCDRILWKSYPETHIICNSYGCTDDIVTSDHSPVFGTFEVGVTSQFISKKGLSKTSDQAYIEFESIEAIVKTASRTKFFIEFYSTCLEEYKKSFENDAQSSDNINFLKVQWSSRQLPTLKPILADIEYLQDQHLLLTVKSMDGYESYGECVVALKSMIGSTAQQFLTFLSHRGEETGNIRGSMKVRVPTERLGTRERLYEWISIDKDEAGAKSKAPSVSRGSQEPRSGSRKPAFTEASCPLSRLFEEPEKPPPTGRPPAPPRAAPREEPLTPRLKPEGAPEPEGVAAPPPKNSFNNPAYYVLEGVPHQLLPPEPPSPARAPVPSATKNKVAITVPAPQLGHHRHPRVGEGSSSDEESGGTLPPPDFPPPPLPDSAIFLPPSLDPLPGPVVRGRGGAEARGPPPPKAHPRPPLPPGPSPASTFLGEVASGDDRSCSVLQMAKTLSEVDYAPAGPARSALLPGPLELQPPRGLPSDYGRPLSFPPPRIRESIQEDLAEEAPCLQGGRASGLGEAGMSAWLRAIGLERYEEGLVHNGWDDLEFLSDITEEDLEEAGVQDPAHKRLLLDTLQLSK

Assay: Pull-down with phosphorylated CD244 ITSM1 from NK cell lysates, LC-MS/MS
Format: binding
Settings: human NK cell lysates; compared with control phosphopeptide SHIP-1 Y865
Procedure: For pull-down of associated proteins, streptavidin Sepharose (GE Healthcare) was pre-coated with saturating amounts of peptide or EAT-2. NK92 cells (4×10^8) were treated with 500 μM pervanadate for 15 minutes, then lysed in PBS, 1% Triton X-100, 1 mM sodium orthovanadate in the presence of mammalian protease inhibitor solution (Sigma). Lysates were pre-cleared by centrifugation, followed by incubation with streptavidin Sepharose. Peptide or EAT-2-coated streptavidin beads were incubated with NK92 lysates for 2 hours at 4°C with rotation. Beads were washed once with 15 ml ice cold PBS/1% (v/v) Triton X-100. Bound protein was eluted using 100 mM glycine-HCl pH 2.5.
Protein samples were prepared for mass spectrometry as described previously. Briefly, eluted proteins were spun onto the membranes of Vivacon 500 filters (10,000 MWCO – Sartorius). Membranes were washed once with PBS then proteins were denatured with 8 M urea, reduced with 10 mM DTT in 25 mM ammonium bicarbonate buffer, followed by alkylation with 50 mM iodoacetamide. Proteins were then digested overnight with trypsin. Tryptic peptides were then eluted from the membrane and analyzed on an Ultimate 3000 HPLC-coupled Orbitrap XL mass spectrometer. Proteins were identified by liquid chromatography-coupled tandem mass-spectrometry (LC-MS/MS). Raw data files were converted to mzXML format using ReADW (v. 4.2.1) and submitted to the Central Proteomics Facilities Pipeline for database comparison and peptide identification. Searching against the International Protein Index (IPI) human protein sequence database for protein identification, protein and peptide hits were statistically validated by applying a 1% false discovery rate (FDR) by searching against a concatenated target/decoy database. Datasets were searched with variable peptide modifications for phosphotyrosine, phosphoserine, phosphothreonine, oxidation of methionine and deamination.
Protein identification data were exported into ProteinCenter (v3.8.3013 – Thermo Fisher) for filtering and annotation. Results were filtered to remove any proteins with less than 3 unique peptides, less than 10 percent sequence coverage, or median protein probability scores less than 0.5. To establish sample specificity, any protein with at least 10-fold greater sequence coverage in one sample compared with the other was considered to be specific for that sample.
Similarly, differences in specificity of inhibitory SH2 domain containing proteins for ITSMs are relevant to understanding mechanisms of inhibition by ITSMs. We focused on CD244 ITSMs to establish general paradigms.

Question: Which “pull-down by CD244 ITSM1” value does the source give for B1 here?
Answer: The value was “pulled down by the ITSM peptide”.

Question: With B2 as the molecule, how does the “pull-down by CD244 ITSM1” value read?
Answer: The value was “identifying SAP and EAT-2”.

Question: Which “pull-down by CD244 ITSM1” value does the source give for B3 here?
Answer: The value was “pulled down by the ITSM peptide”.

Question: Which “pull-down by CD244 ITSM1” value does the source give for B4 here?
Answer: The value was “pulled down by the ITSM peptide”.
